The chains are these.
B1: Arabidopsis thaliana AtSLY1 (yeast bait fusion) [Arabidopsis thaliana] / A. thaliana GAI (yeast prey fusion) [Arabidopsis thaliana] (parent complex)
chain 1: MKRSTTDSDLAGDAHNETNKKMKSTEEEEIGFSNLDENLVYEVLKHVDAKTLAMSSCVSKIWHKTAQDERLWELICTRHWTNIGCGQNQLRSVVLALGGFRRLHSLYLWPLSKPNPRARFGKDELKLTLSLLSIRYYEKMSFTKRPLPESK
chain 2: MKRDHHHHHHQDKKTMMMNEEDDGNGMDELLAVLGYKVRSSEMADVAQKLEQLEVMMSNVQEDDLSQLATETVHYNPAELYTWLDSMLTDLNPPSSNAEYDLKAIPGDAILNQFAIDSASSSNQGGGGDTYTTNKRLKCSNGVVETTTATAESTRHVVLVDSQENGVRLVHALLACAEAVQKENLTVAEALVKQIGFLAVSQIGAMRKVATYFAEALARRIYRLSPSQSPIDHSLSDTLQMHFYETCPYLKFAHFTANQAILEAFQGKKRVHVIDFSMSQGLQWPALMQALALRPGGPPVFRLTGIGPPAPDNFDYLHEVGCKLAHLAEAIHVEFEYRGFVANTLADLDASMLELRPSEIESVAVNSVFELHKLLGRPGAIDKVLGVVNQIKPEIFTVVEQESNHNSPIFLDRFTESLHYYSTLFDSLEGVPSGQDKVMSEVYLGKQICNVVACDGPDRVERHETLSQWRNRFGSAGFAAAHIGSNAFKQASMLLALFNGGEGYRVEESDGCLMLGWHTRPLIATSAWKLSTN

In one test the parent is B1. The experiment in a line: yeast 2-hybrid; parent: 0.3; read off a plot.
Turning to chain 1 MKRSTTDSDLAGDAHNETNKKMKSTEEEEIGFSNLDENLVYEVLKHVDAKTLAMSSCVSKIWHKTAQDERLWELICTRHWTNIGCGQNQLRSVVLALGGFRRLHSLYLWPLSKSNPRARFGKDELKLTLSLLSIRYYEKMSFTKRPLPESK, the response is ~41 β-galactosidase units.

In the case of chain 1 MKRSTTDSDLAGDAHNETNKKMKSTEEEEIGFSNLDENLVYEVLKHVDAKTLAMSSCVSKIWHKTAQDERLWELICTRHWTNIGCGQNQLRSVVLALGGFRRLYSLYLWPLSKPNPRARFGKDELKLTLSLLSIRYYEKMSFTKRPLPESK, the response is ~120 β-galactosidase units.

In the case of chain 1 E138K, the response is ~15 β-galactosidase units.

For chain 1 MKRSTTDSDLAGDAHNETNKKMKSTEEEEIGFSNLDENLVYEVLKHVDAKTLAMSSCVSKIWHKTAQDERLWELICTRHWTNIGCGQNQLRSVVLALGGFRRLHSLYLWPLSKPNPRARFGKDELKLALSLLSIRYYEKMSFTKRPLPESK, the response was ~86 β-galactosidase units.

chain 1 MKRSTTDSDLAGDAHNETNKKMKSTEEEEIGFSNLDENLVYEVLKHVDAKTLAMSSCVSKIWHKTAQDERLWELICTRHWTNIGCGQNQLRSVVLALGGFRRLHSLYLWPLSKPNPRARFGKDELKLSLSLLSIRYYEKMSFTKRPLPESK: the response is ~44 β-galactosidase units.

The variants in another test derive from B1. Kind of test: yeast 2-hybrid; parent: 0.35; read off a plot.
As to chain 1 MKRSTTDSDLAGDAHNETNKKMKSTEEEEIGFSNLDENLVYEVLKHVDAKTLAMSSCVSKIWHKTAQDERLWELICTRHWTNIGCGQNQLRSVVLALGGFRRLHSLYLWPLSKSNPRARFGKDELKLTLSLLSIRYYEKMSFTKRPLPESK, the response is ~55 β-galactosidase units.

Variants of B1 are the subject of the next test. The experiment in a line: pull-down (IP: His, immunoblot); parent: 1. For orientation: A western blot detects proteins with antibodies after separation by electrophoresis.
As for chain 1 MKRSTTDSDLAGDAHNETNKKMKSTEEEEIGFSNLDENLVYEVLKHVDAKTLAMSSCVSKIWHKTAQDERLWELICTRHWTNIGCGQNQLRSVVLALGGFRRLYSLYLWPLSKPNPRARFGKDELKLTLSLLSIRYYEKMSFTKRPLPESK, the ratio to parent amounted to 3.05.

For chain 1 MKRSTTDSDLAGDAHNETNKKMKSTEEEEIGFSNLDENLVYEVLKHVDAKTLAMSSCVSKIWHKTAQDERLWELICTRHWTNIGCGQNQLRSVVLALGGFRRLHSLYLWPLSKPNPRARFGKDELKLALSLLSIRYYEKMSFTKRPLPESK, the ratio to parent stood at 2.36.

The variants in a further test derive from B1. Kind of test: yeast 2-hybrid; parent: 0.3; read off a plot. This is another data set of the same source.
As to chain 1 MKRSTTDSDLAGDAHNETNKKMKSTEEEEIGFSNLDENLVYEVLKHVDAKTLAMSSCVSKIWHKTAQDERLWELICTRHWTNIGCGQNQLRSVVLALGGFRRLYSLYLWPLSKPNPRARFGKDELKLTLSLLSIRYYEKMSFTKRPLPESK, the response is ~110 β-galactosidase units.

For the variant chain 1 MKRSTTDSDLAGDAHNETNKKMKSTEEEEIGFSNLDENLVYEVLKHVDAKTLAMSSCVSKIWHKTAQDERLWELICTRHWTNIGCGQNQLRSVVLALGGFRRLFSLYLWPLSKPNPRARFGKDELKLTLSLLSIRYYEKMSFTKRPLPESK, the response is ~100 β-galactosidase units.

Variants of B1 are the subject of a further test. Kind of test: yeast 2-hybrid; parent: 0.35; read off a plot. This is another data set of the same source.
With chain 1 MKRSTTDSDLAGDAHNETNKKMKSTEEEEIGFSNLDENLVYEVLKHVDAKTLAMSSCVSKIWHKTAQDERLWELICTRHWTNIGCGQNQLRSVVLALGGFRRLYSLYLWPLSKPNPRARFGKDELKLTLSLLSIRYYEKMSFTKRPLPESK, the response was ~99 β-galactosidase units.

With chain 1 E138K, the response was ~17 β-galactosidase units.

chain 1 MKRSTTDSDLAGDAHNETNKKMKSTEEEEIGFSNLDENLVYEVLKHVDAKTLAMSSCVSKIWHKTAQDERLWELICTRHWTNIGCGQNQLRSVVLALGGFRRLHSLYLWPLSKPNPRARFGKDELKLALSLLSIRYYEKMSFTKRPLPESK: the response is ~77 β-galactosidase units.

In another test the parent is B1. Kind of test: pull-down (IP: His, immunoblot); without GST-GID1C, without GA3 (GAI in A Form); parent: 1.
chain 1 MKRSTTDSDLAGDAHNETNKKMKSTEEEEIGFSNLDENLVYEVLKHVDAKTLAMSSCVSKIWHKTAQDERLWELICTRHWTNIGCGQNQLRSVVLALGGFRRLYSLYLWPLSKPNPRARFGKDELKLTLSLLSIRYYEKMSFTKRPLPESK: the ratio to parent was determined as 5.65.

For the variant chain 1 E138K, the ratio to parent turned out to be 1.86.

Turning to chain 1 MKRSTTDSDLAGDAHNETNKKMKSTEEEEIGFSNLDENLVYEVLKHVDAKTLAMSSCVSKIWHKTAQDERLWELICTRHWTNIGCGQNQLRSVVLALGGFRRLHSLYLWPLSKPNPRARFGKDELKLALSLLSIRYYEKMSFTKRPLPESK, the ratio to parent was 2.27.

The next test covers variants of B1. Kind of test: pull-down (IP: His, immunoblot); with GST-GID1C, with GA3 (GAI in A + A' Forms); parent: 2.41.
Turning to chain 1 MKRSTTDSDLAGDAHNETNKKMKSTEEEEIGFSNLDENLVYEVLKHVDAKTLAMSSCVSKIWHKTAQDERLWELICTRHWTNIGCGQNQLRSVVLALGGFRRLYSLYLWPLSKPNPRARFGKDELKLTLSLLSIRYYEKMSFTKRPLPESK, the response is 11.8 relative anti-MBP band intensity (SLY1 without GST-GID1C and GA3 = 1.00).

Consider chain 1 E138K, for which the response is 3.88 relative anti-MBP band intensity (SLY1 without GST-GID1C and GA3 = 1.00).

As to chain 1 MKRSTTDSDLAGDAHNETNKKMKSTEEEEIGFSNLDENLVYEVLKHVDAKTLAMSSCVSKIWHKTAQDERLWELICTRHWTNIGCGQNQLRSVVLALGGFRRLHSLYLWPLSKPNPRARFGKDELKLALSLLSIRYYEKMSFTKRPLPESK, the response was 9.37 relative anti-MBP band intensity (SLY1 without GST-GID1C and GA3 = 1.00).

For the origin of these results see article PMC10724065, “Evolution of a plant growth-regulatory protein interaction specificity” (Nature Plants, 2023).
